Data on 14 molecules can be found in patent US20160185837A1 (AstraZeneca / MedImmune, published 2016).

Changes are numbered by the printed parent chain.

To fix the notation:
T1: rat GLP-1 receptor (rat, UniProt P32301 22-463)
T1 sequence (looked up): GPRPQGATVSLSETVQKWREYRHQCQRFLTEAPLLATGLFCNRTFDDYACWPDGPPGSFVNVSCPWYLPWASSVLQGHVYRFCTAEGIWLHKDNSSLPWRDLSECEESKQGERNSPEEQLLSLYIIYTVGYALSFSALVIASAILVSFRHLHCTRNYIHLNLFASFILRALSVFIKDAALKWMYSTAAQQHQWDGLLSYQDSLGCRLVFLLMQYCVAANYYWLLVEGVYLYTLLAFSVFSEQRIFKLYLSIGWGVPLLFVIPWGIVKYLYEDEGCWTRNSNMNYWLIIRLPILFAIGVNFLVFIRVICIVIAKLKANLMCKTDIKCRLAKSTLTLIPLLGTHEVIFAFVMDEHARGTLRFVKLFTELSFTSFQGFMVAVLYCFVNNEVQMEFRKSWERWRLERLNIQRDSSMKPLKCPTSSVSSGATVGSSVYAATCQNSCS

T2: mouse GIP receptor (mouse, UniProt Q0P543 19-460)
T2 sequence (looked up): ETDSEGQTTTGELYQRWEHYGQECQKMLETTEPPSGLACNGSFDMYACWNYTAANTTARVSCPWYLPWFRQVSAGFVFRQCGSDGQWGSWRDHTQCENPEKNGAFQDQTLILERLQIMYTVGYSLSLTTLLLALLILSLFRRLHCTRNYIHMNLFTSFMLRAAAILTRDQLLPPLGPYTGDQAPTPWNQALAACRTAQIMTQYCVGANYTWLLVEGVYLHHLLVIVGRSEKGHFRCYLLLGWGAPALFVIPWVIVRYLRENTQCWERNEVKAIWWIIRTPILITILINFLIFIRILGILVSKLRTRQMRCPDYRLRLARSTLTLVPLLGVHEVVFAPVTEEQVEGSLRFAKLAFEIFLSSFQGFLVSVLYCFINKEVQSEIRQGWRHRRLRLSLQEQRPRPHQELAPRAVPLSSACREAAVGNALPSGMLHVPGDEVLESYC

T3: human GIP receptor (human, UniProt P48546 22-466)
T3 sequence (looked up): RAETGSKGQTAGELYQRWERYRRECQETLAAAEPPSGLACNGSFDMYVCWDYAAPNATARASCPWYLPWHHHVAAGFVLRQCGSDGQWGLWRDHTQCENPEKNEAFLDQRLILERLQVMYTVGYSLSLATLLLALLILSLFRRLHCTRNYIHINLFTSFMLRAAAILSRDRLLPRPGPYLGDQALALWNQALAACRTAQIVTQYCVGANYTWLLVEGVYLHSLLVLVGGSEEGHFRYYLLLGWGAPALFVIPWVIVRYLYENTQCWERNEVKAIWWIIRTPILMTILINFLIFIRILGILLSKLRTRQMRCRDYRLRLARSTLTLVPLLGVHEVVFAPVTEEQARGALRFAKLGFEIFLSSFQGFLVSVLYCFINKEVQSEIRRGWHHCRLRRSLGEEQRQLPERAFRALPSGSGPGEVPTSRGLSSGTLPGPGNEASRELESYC

T4: rat GIP receptor (rat, UniProt P43219 19-455)
T4 sequence (looked up): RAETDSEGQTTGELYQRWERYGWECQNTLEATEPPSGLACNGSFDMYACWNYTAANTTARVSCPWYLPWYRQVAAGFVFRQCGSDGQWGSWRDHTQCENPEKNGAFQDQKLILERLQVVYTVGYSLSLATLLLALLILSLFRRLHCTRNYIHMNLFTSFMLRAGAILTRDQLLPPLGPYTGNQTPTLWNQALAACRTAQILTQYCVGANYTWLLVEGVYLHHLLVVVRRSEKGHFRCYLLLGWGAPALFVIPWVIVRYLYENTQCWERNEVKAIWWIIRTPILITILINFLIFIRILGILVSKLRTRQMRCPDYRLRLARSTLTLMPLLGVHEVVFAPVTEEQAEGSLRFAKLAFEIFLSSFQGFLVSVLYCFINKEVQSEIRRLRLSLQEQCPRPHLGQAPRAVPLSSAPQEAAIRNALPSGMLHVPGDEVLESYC

T5: mouse GLP-1 receptor (mouse, UniProt O35659 22-463)
T5 sequence (looked up): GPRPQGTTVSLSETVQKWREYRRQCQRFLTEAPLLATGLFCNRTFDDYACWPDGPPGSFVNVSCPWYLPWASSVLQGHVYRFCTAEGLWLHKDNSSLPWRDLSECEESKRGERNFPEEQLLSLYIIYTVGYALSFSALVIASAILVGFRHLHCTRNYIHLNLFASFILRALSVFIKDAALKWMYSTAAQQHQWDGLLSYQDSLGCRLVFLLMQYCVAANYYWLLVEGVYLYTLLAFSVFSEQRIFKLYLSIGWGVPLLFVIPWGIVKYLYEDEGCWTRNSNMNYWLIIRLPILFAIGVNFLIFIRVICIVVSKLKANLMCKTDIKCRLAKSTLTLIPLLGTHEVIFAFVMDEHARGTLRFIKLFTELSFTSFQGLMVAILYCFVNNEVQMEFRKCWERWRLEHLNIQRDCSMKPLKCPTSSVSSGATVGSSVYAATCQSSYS

B1: IP357 (Fc fusion)
chain: YSEGTFTSDFSKLLEEEAVRLFIEFLLAGGGGGGSGGGGSGGGGSGGGGSATHTCPPC
B2: IP384 (Fc fusion)
chain: B1 chain with F10Y, F25W, A28K
B3: IP382 (Fc fusion)
chain: B1 chain with D9L, F10Y, F25Y
B4: IP358 (Fc fusion)
chain: B1 chain with F25W
B5: IP379 (Fc fusion)
chain: B1 chain with F6H, F25W
B6: IP360 (Fc fusion)
chain: B1 chain with F10Y, S11R, K12I, F25W
B7: IP363 (Fc fusion)
chain: B1 chain with F10Y, S11R, K12M, L14K, F25W
B8: IP361 (Fc fusion)
chain: B1 chain with F10Y, S11R, K12I, L14K, F25W
B9: IP370 (Fc fusion)
chain: B1 chain with D9L, F10Y, L14K, F25W
B10: IP362 (Fc fusion)
chain: B1 chain with F10Y, S11M, K12M, L14K, F25W
B11: IP374 (Fc fusion)
chain: B1 chain with D9L, F10Y, F25W
B12: IP390 (Fc fusion)
chain: YSEGTFTSDYSKLLEEEAVRLFIEWLVKGPGGGGGSGGGGSGGGGSGGGGSGGGGSACPPC
B13: IP371 (Fc fusion)
chain: YSEGMHTSDLSKLLEEEAVRLFIEWLLAGGGGGGGSGGGGSGGGGSGGGGSACPPC
B14: IP372 (Fc fusion)
chain: B13 chain with M5T, H6F, L10Y, K12I, L13Y, E15D

The target of the first test is T1, rat GLP-1 receptor. Kind of test: cell-based or functional assay.
For the molecule B1, the “cAMP EC50” value came out at 0.13 nM.

Consider B2, for which the “cAMP EC50” value is 0.024 nM.

As to B3, the “cAMP EC50” value is 0.68 nM.

As for B4, the “cAMP EC50” value worked out at 0.15 nM.

Consider B5, for which the “cAMP EC50” value was found to be 1.5 nM.

For B6, the “cAMP EC50” value was determined as 0.15 nM.

Take B7: the “cAMP EC50” value was found to be 1.4 nM.

B8: the “cAMP EC50” value came out at 18 nM.

Regarding B9, the “cAMP EC50” value was determined as 0.35 nM.

In the case of B10, the “cAMP EC50” value worked out at 1.1 nM.

As to B11, the “cAMP EC50” value worked out at 0.89 nM.

For the molecule B12, the “cAMP EC50” value is 0.024 nM.

In the case of B13, the “cAMP EC50” value came out at 1.1 nM.

For the molecule B14, the “cAMP EC50” value was 2.9 nM.

A further test deals with human glucagon receptor (human, UniProt P47871 26-477). The test is described as follows: cell-based or functional assay.
Take B1: the “cAMP EC50” value was found to be 110 nM.

Take B2: the “cAMP EC50” value worked out at 26 nM.

Consider B3, for which the “cAMP EC50” value stood at 120 nM.

On to B4, for which the “cAMP EC50” value was 140 nM.

With B5, the “cAMP EC50” value is more than 13200 nM.

Consider B6, for which the “cAMP EC50” value turned out to be 63 nM.

As to B7, the “cAMP EC50” value stood at 560 nM.

As to B8, the “cAMP EC50” value was more than 6200 nM.

In the case of B9, the “cAMP EC50” value is more than 9490 nM.

Take B10: the “cAMP EC50” value is more than 4960 nM.

As to B11, the “cAMP EC50” value was more than 2090 nM.

Regarding B12, the “cAMP EC50” value is more than 218 nM.

Take B13: the “cAMP EC50” value is more than 6560 nM.

Consider B14, for which the “cAMP EC50” value was more than 3880 nM.

The next test concerns the target T2, mouse GIP receptor. The test is described as follows: cell-based or functional assay.
Turning to B1, the “cAMP EC50” value was found to be 16 nM.

On to B2, for which the “cAMP EC50” value amounted to 4.1 nM.

For B3, the “cAMP EC50” value was found to be 6.5 nM.

In the case of B4, the “cAMP EC50” value is 12 nM.

Take B5: the “cAMP EC50” value was 150 nM.

For B6, the “cAMP EC50” value was found to be 0.36 nM.

As for B7, the “cAMP EC50” value worked out at 0.31 nM.

With B8, the “cAMP EC50” value turned out to be 0.19 nM.

As to B9, the “cAMP EC50” value amounted to 0.48 nM.

With B10, the “cAMP EC50” value is 1.1 nM.

Take B11: the “cAMP EC50” value was 1.9 nM.

On to B12, for which the “cAMP EC50” value worked out at 3.6 nM.

For the molecule B13, the “cAMP EC50” value was determined as 280 nM.

In the case of B14, the “cAMP EC50” value was 450 nM.

In the next test the target is T3, human GIP receptor. Kind of test: cell-based or functional assay.
Turning to B1, the “cAMP EC50” value turned out to be 0.014 nM.

With B2, the “cAMP EC50” value worked out at 0.0062 nM.

As to B3, the “cAMP EC50” value was 0.19 nM.

For the molecule B4, the “cAMP EC50” value came to 0.0094 nM.

B5: the “cAMP EC50” value worked out at 0.0038 nM.

For B6, the “cAMP EC50” value was determined as 0.016 nM and the “cAMP EC50, hGIPr (C3) line” value was 2.5 nM.

Consider B7, for which the “cAMP EC50” value worked out at 0.056 nM.

With B8, the “cAMP EC50” value turned out to be 0.082 nM.

Turning to B9, the “cAMP EC50” value stood at 0.19 nM.

B10: the “cAMP EC50” value is 0.061 nM.

In the case of B11, the “cAMP EC50” value is 0.2 nM.

As to B12, the “cAMP EC50” value was 0.0088 nM.

Consider B13, for which the “cAMP EC50” value amounted to 0.011 nM.

As to B14, the “cAMP EC50” value came out at 0.05 nM.

In the next test the target is human GLP-1 receptor (human, UniProt P43220 24-463). The test is described as follows: cell-based or functional assay.
As for B1, the “cAMP EC50” value was 0.27 nM.

Turning to B2, the “cAMP EC50” value turned out to be 0.091 nM.

With B3, the “cAMP EC50” value is 1.5 nM.

Regarding B4, the “cAMP EC50” value came out at 0.24 nM.

For the molecule B5, the “cAMP EC50” value amounted to 0.84 nM.

In the case of B6, the “cAMP EC50” value is 0.31 nM.

As to B7, the “cAMP EC50” value came to 0.98 nM.

Turning to B8, the “cAMP EC50” value was 3.4 nM.

Consider B9, for which the “cAMP EC50” value amounted to 0.62 nM.

In the case of B10, the “cAMP EC50” value is 1.7 nM.

As to B11, the “cAMP EC50” value came out at 1.4 nM.

For B12, the “cAMP EC50” value turned out to be 0.13 nM.

Regarding B13, the “cAMP EC50” value was 0.48 nM.

With B14, the “cAMP EC50” value is 0.71 nM.

Another test deals with T4, rat GIP receptor. The test is described as follows: cell-based or functional assay.
Turning to B1, the “cAMP EC50” value was determined as 0.067 nM.

Regarding B2, the “cAMP EC50” value was 0.043 nM.

With B3, the “cAMP EC50” value was 0.92 nM.

As to B4, the “cAMP EC50” value turned out to be 0.049 nM.

As to B5, the “cAMP EC50” value came out at 0.41 nM.

For B6, the “cAMP EC50” value is 0.033 nM.

For the molecule B7, the “cAMP EC50” value came to 0.045 nM.

Consider B8, for which the “cAMP EC50” value was found to be 0.038 nM.

On to B9, for which the “cAMP EC50” value is 0.13 nM.

Take B10: the “cAMP EC50” value was 0.083 nM.

Regarding B11, the “cAMP EC50” value came to 0.41 nM.

For the molecule B12, the “cAMP EC50” value came out at 0.23 nM.

Take B13: the “cAMP EC50” value is 0.21 nM.

Turning to B14, the “cAMP EC50” value turned out to be 27 nM.

The next test deals with T5, mouse GLP-1 receptor. Kind of test: cell-based or functional assay.
Take B1: the “cAMP EC50” value worked out at 1.1 nM.

B2: the “cAMP EC50” value amounted to 0.99 nM.

With B3, the “cAMP EC50” value worked out at 16 nM.

In the case of B4, the “cAMP EC50” value is 1.1 nM.

On to B5, for which the “cAMP EC50” value worked out at 44 nM.

For B6, the “cAMP EC50” value was 1.2 nM.

Regarding B7, the “cAMP EC50” value came to 11 nM.

Turning to B8, the “cAMP EC50” value is 170 nM.

Regarding B9, the “cAMP EC50” value was 13 nM.

Turning to B10, the “cAMP EC50” value was determined as 11 nM.

For the molecule B11, the “cAMP EC50” value is 19 nM.

In the case of B12, the “cAMP EC50” value was found to be 2 nM.

For B13, the “cAMP EC50” value stood at 8.5 nM.

Take B14: the “cAMP EC50” value came to 33 nM.
